# Data reported in patent US5223256A, “Thrombolytically active non-glycosylated protein” (Boehringer Mannheim GmbH, priority 1989, dated 1993).
# Experiments:
# [1] = Plasma t-PA activity at the end of infusion in the rabbit jugular vein model; type: in vivo; details: end of 4 h infusion, mean ± SEM
# Protocol: (§1) The jugular vein model established by D. Collen et al., (J. Clin. Invest. 71, 368, 1983) was used to investigate the thrombolytic efficacy. K2P and Actilyse® were each examined at three dose levels. The fibrinolytic agents were infused for 4 hours and afterwards the rate of thrombolysis was determined (Table 2, FIG. 5).
# (§2) Thrombolysis, level of t-PA plasma activity (at the end of a 4 h
# bleeding time = test: Simplate bleeding time in the dog; type: in vivo; details: i.v. bolus
# Protocol: (§3) In a study to determine the dosage, BM 06.022 with the eukaryotic t-PA (Alteplase, Actilyse®, Dr. Karl Thomae GmbH, Biberach, FRG) in four different doses and with placebo were injected as an initial single intravenous bolus over 1 min into heparinized dogs; 6 animals were injected with each dose. Plasma samples were taken before and at defined times after the injection in order to determine the plasma concentration of the t-PA activity and of fibrinogen, plasminogen and α2 -antiplasmin as well as the number of thrombocytes in whole blood. Fibrinogen was measured coagulometrically according to Clauss (Acta haemat. 17, 237, 1957), plasminogen and α2-antiplasmin were measured spectrophotometrically as described by Collen et al., (J. Clin. Invest. 71, 368, 1983). In addition, the "Simplate bleeding time" was measured on the hind leg of the dogs using a lancet (Simplate® I, Organon Teknika, Eppelheim, FRG) during a venostasis of 40 mm Hg (J. Surg. Res. 27, 244, 1979). The statistical comparison of the measured values after injection with the control value before injection was carried out with the Wilcoxon Test for pair differences.
# [2] = Pharmacokinetics in rabbits (t-PA activity in plasma); type: in vivo, New-Zealand white rabbits; details: 200000 IU/kg, i.v. infusion 30 min
# Protocol: The pharmacokinetic properties of K2P were compared to those of Actilyse® in New-Zealand white rabbits. Both fibrinolytic agents were infused for 30 minutes at a dose of 200,000 IU/kg body weight. Plasma samples were taken at defined times before, during and after the infusion. The t-PA activity was measured with a spectrophotometric test according to J. H. Verheijen et al., (Thromb. Haemostas. 48, 266, 1982), modified according to H. Lill (Z. ges. Inn. Med. 42, 478, 1987).
# A calculation programme for non-linear regression modified according to H. Y. Huang (Aero-Astronautics-Report 64, Rice University, 1-30, 1969) Was used to calculate the pharmacokinetic parameters. The parameters were calculated individually using a bi-exponential pharmacokinetic model.
# jugular vein thrombosis = test: Thrombolysis in the rabbit jugular vein model; type: in vivo; details: 4 h infusion, mean ± SEM
# Protocol: as §1
# coagulation system [3] = test: Haemostasis parameters in the rabbit jugular vein model; type: in vivo; details: 30 min after end of infusion, mean ± SEM
# Protocol: as §1, §2
# and haemostasis parameters (30 min after the end of the infusion) of
# Mean ± SEM; kU = 1000 IU; HaemostasisParameter (% with reference to […]
# [4] = Pharmacokinetics in the dog (t-PA activity in plasma); type: in vivo; details: 200000 IU/kg, i.v. bolus, mean ± standard deviation
# Protocol: as §3
# The plasma concentration of the t-PA activity was measured with a spectrophotometric test according to Verheijen et al., (Thromb. Haemost. 48, 266, 1982) modified according to Lill (Z. gesamte Inn. Med. 42, 478, 1987). A calculation programme for non-linear regression modified according to H. Y. Huang (Aero-Astronautics-Report 64, Rice University, USA, 1-30, 1969) was used to calculate the pharmacokinetic parameters. The parameters were calculated individually using a bi-exponential pharmacokinetic model after subtraction of the endogenous basal level of t-PA activity from the subsequent measured values.
# [5] = system: coronary artery thrombosis; test: Dog model for coronary artery thrombosis (thrombolysis); type: in vivo; details: for Wet weight of the residual thrombus: 2 h; for Wet weight of the residual thrombus / Reperfusion time: mean ± SEM
# Text: An experimental model for acute myocardial infarction in animals was chosen as an example in order to examine the thrombolytic effect of K2P from E. coli on arterial thrombi. The dog was chosen as the animal species. The method for the formation of a coronary artery thrombus was a modification of the technique of Romson et al., (Thromb. Res. 17, 841, 1980). In the open thorax of anaesthetized dogs which were artificially respirated, the intimal surface of the ramus branch of the left circumflex coronary artery (LCX) was electrically stimulated (150 μA) and by this means a thrombus was produced. Previously a screw was applied distal to the thrombosis in order to eliminate a reactive hyperaemia by the experimental stenosis. Proximal to the coronary thrombosis the LCX was equipped with an electromagnetic flow measuring head in order to be able to measure the reperfusion.
# as §3
# In order to describe the thrombolytic effect, the number of reperfused animals per dose-group (=reperfusion rate) as well as the time up to the reperfusion (=reperfusion time) was quoted. In addition, the wet weight of the residual thrombus still present 2 h after injection was measured and the number of animals with a re-occlusion after reperfusion (=re-occlusionrate) was determined. With the aid of a semi-logarithmic regression analysis of the dose-effect (reperfusion rates) relationships, the effective dose for a 50% reperfusion rate (=ED50) was determined for each substance. The statistical comparison of the weights of the residual thrombi was carried out using the Wilcoxon-Mann-Whitney Test for unconnected random samples.
# coagulation system [6] = test: Coagulation parameters and number of thrombocytes in the dog; type: in vivo; details: for Fibrinogen (% of initial value) / Number of platelets (% of initial value) / Plasminogen (% of initial value) / α2-Antiplasmin (% of initial value): 2 h after i.v. bolus, mean ± SEM
# Protocol: as §3
# plasminogen = details: background; cited from earlier work
# [7] = background; cited from earlier work
# [8] = background; cited from earlier work; remark: listed apart in the source
substance,measurement,setting,value
"Actilyse®: eukaryotic t-PA (Alteplase, Actilyse®, Dr. Karl Thomae GmbH, Biberach, FRG)",Plasma t-PA activity,[1]; 400 kU/kg,47 ± 9 IU/ml
same,Plasma t-PA activity,[1]; 800 kU/kg,107 ± 27 IU/ml
same,bleeding time compared with control value before injection,bleeding time,increased the bleeding time which was statistically significant at doses of 1130 and 1600 kU/kg body weight
same,Cinf (plasma concentration of t-PA activity at end of infusion),[2],"326,6 IU/ml"
same,Cltot (total plasma clearance),[2],22.2 mL/min/kg
same,Vc (volume of distribution of the central compartment),[2],73.7 mL/kg
same,t1/2α,[2],"2,1 min"
same,t1/2β,[2],"10,9 min"
same,Cltot (total plasma clearance),[2]; listed as Actilyse ®,"22,2 ml/min/kg"
same,Vc (volume of distribution of the central compartment),[2]; listed as Actilyse ®,"73,7 ml/kg"
same,Thrombolysis,jugular vein thrombosis; 400 kU/kg,46 ± 3%
same,Thrombolysis,jugular vein thrombosis; 800 kU/kg,64 ± 6%
same,Fibrinogen (% of base line),coagulation system [3]; 400 kU/kg,90 ± 3%
same,Plasminogen (% of base line),coagulation system [3]; 400 kU/kg,88 ± 4%
same,α2-Antiplasmin (% of base line),coagulation system [3]; 400 kU/kg,87 ± 3%
same,Fibrinogen (% of base line),coagulation system [3]; 800 kU/kg,77 ± 6%
same,Plasminogen (% of base line),coagulation system [3]; 800 kU/kg,77 ± 4%
same,α2-Antiplasmin (% of base line),coagulation system [3]; 800 kU/kg,74 ± 6%
same,Cinj.,[4],1674 IU/ml
same,T1/2α,[4],1.6 ± 0.2 min
same,T1/2β,[4],"14,6 min"
same,Vc (volume of distribution of the central compartment),[4],"106,1 ml/kg"
same,T1/2α,[4]; listed as Actilyse ®,"1,6 min"
same,Re-occlusion rate,"[5]; 1 130 000 IU/kg, i.v. bolus",4/4
same,Reperfusion rate,"[5]; 1 130 000 IU/kg, i.v. bolus",4/6
same,Wet weight of the residual thrombus,"[5]; 1 130 000 IU/kg, i.v. bolus","4,4 ± 0,5 mg"
same,Reperfusion time,"[5]; 1 130 000 IU/kg, i.v. bolus",14 ± 3 min
same,Re-occlusion rate,"[5]; 1 600 000 IU/kg, i.v. bolus",4/6
same,Reperfusion rate,"[5]; 1 600 000 IU/kg, i.v. bolus",6/6
same,Wet weight of the residual thrombus,"[5]; 1 600 000 IU/kg, i.v. bolus","2,2 ± 0,7 mg"
same,Reperfusion time,"[5]; 1 600 000 IU/kg, i.v. bolus",28 ± 11 min
same,Reperfusion rate,"[5]; 200 000 IU/kg, i.v. bolus",0/6
same,Wet weight of the residual thrombus,"[5]; 200 000 IU/kg, i.v. bolus","8,8 ± 1,3 mg"
same,Re-occlusion rate,"[5]; 800 000 IU/kg, i.v. bolus",1/2
same,Reperfusion rate,"[5]; 800 000 IU/kg, i.v. bolus",2/6
same,Wet weight of the residual thrombus,"[5]; 800 000 IU/kg, i.v. bolus","5,5 ± 0,4 mg"
same,Reperfusion time,"[5]; 800 000 IU/kg, i.v. bolus",35 ± 38 min
same,Reperfusion rate,"[5]; 1,600 kU/kg body weight, i.v.",100%
same,re-occlusion after reperfusion,[5]; i.v. bolus,Most of the dogs treated with K2P or Actilyse® re-occluded after the reperfusion
same,"reperfusion time, average over all animals","[5]; i.v. bolus, all doses",24.2 ± 6.2 min
same,weight of the residual thrombus compared to placebo,"[5]; increasing doses, i.v. bolus",statistically significant reduction in the weight of the residual thrombus
same,Fibrinogen (% of initial value),coagulation system [6]; 1 130 000 IU/kg,16 ± 13%
same,Number of platelets (% of initial value),coagulation system [6]; 1 130 000 IU/kg,110 ± 10%
same,Plasminogen (% of initial value),coagulation system [6]; 1 130 000 IU/kg,59 ± 6%
same,α2-Antiplasmin (% of initial value),coagulation system [6]; 1 130 000 IU/kg,45 ± 6%
same,Fibrinogen (% of initial value),coagulation system [6]; 1 600 000 IU/kg,3±0%
same,Number of platelets (% of initial value),coagulation system [6]; 1 600 000 IU/kg,119 ± 10%
same,Plasminogen (% of initial value),coagulation system [6]; 1 600 000 IU/kg,46 ± 2%
same,α2-Antiplasmin (% of initial value),coagulation system [6]; 1 600 000 IU/kg,19 ± 11%
same,Fibrinogen (% of initial value),"coagulation system [6]; 1 600 000 IU/kg, listed as Actilyse ®",3 ± 0%
same,Fibrinogen (% of initial value),coagulation system [6]; 200 000 IU/kg,97 ± 3%
same,Number of platelets (% of initial value),coagulation system [6]; 200 000 IU/kg,109 ± 4%
same,Plasminogen (% of initial value),coagulation system [6]; 200 000 IU/kg,90 ± 3%
same,α2-Antiplasmin (% of initial value),coagulation system [6]; 200 000 IU/kg,86 ± 4%
same,Fibrinogen (% of initial value),coagulation system [6]; 800 000 IU/kg,86 ± 4%
same,Number of platelets (% of initial value),coagulation system [6]; 800 000 IU/kg,104 ± 6%
same,Plasminogen (% of initial value),coagulation system [6]; 800 000 IU/kg,87 ± 3%
same,α2-Antiplasmin (% of initial value),coagulation system [6]; 800 000 IU/kg,64 ± 5%
same,concentration of platelets,"coagulation system [6]; 2 h after injection, dog",virtually uninfluenced
same,lowering of residual contents of plasminogen and α2-antiplasmin,"coagulation system [6]; 2 h after injection, dog",more pronounced with Actilyse® than with K2P
same,residual content of fibrinogen at the ED50 for thrombolytic effect,"coagulation system [6]; equipotent doses, semi-logarithmic regression, dog",38.6%
natural t-PA: tissue-type plasminogen activator t-PA,increase of enzymatic activity in presence of fibrin or fibrinogen cleavage products,plasminogen,more than ten-fold
same,side effects at high therapeutic doses,[7],side effects such as for example bleeding
same,clearance rate,[8],rapid decrease in its plasma concentration (clearance)
